Biological target: the molecule itself
Assay: co-sedimentation; FtsZ 6 µM, 50 mM PIPES pH 6.0, 6.8 or 8.0, 1 mM MgCl2, 1 mM GTP, 10 min at 37°C; polymers sedimented at 88,760 x g, 30°C, 30 min; SDS-PAGE of pellets

B1: FtsZ (natural protein, E. coli, UniProt P0A9A6 1-383, looked up)
chain: MFEPMELTNDAVIKVIGVGGGGGNAVEHMVRERIEGVEFFAVNTDAQALRKTAVGQTIQIGSGITKGLGAGANPEVGRNAADEDRDALRAALEGADMVFIAAGMGGGTGTGAAPVVAEVAKDLGILTVAVVTKPFNFEGKKRMAFAEQGITELSKHVDSLITIPNDKLLKVLGRGISLLDAFGAANDVLKGAVQGIAELITRPGLMNVDFADVRTVMSEMGYAMMGSGVASGEDRAEEAAEMAISSPLLEDIDLSGARGVLVNITAGFDLRLDEFETVGNTIRAFASDNATVVIGTSLDPDMNDELRVTVVATGIGMDKRPEITLVTNKQVQQPVMDRYQQHGMAPLTQEQKPVAKVVNDNAPQTAKEPDYLDIPAFLRKQAD
notes: Cell division protein FtsZ, E. coli; no tag is named; also called recombinant E. coli FtsZ; source: E. coli BL21, purified (ammonium sulfate precipitation, desalting, polymerization and depolymerization step)
- binding result: binds

From article PMC3229571, “ZipA Binds to FtsZ with High Affinity and Enhances the Stability of FtsZ Protofilaments” (PLoS ONE, 2011)
